{"source": "FireProtDB (doi:10.1021/bi961660c)", "conditions": "Escherichia coli (strain K12), pH 7, 25 °C, GdnHCl, CD, Tris-HCl 20 mM, reversible: yes, whole UniProt chain shown", "note": "Several values for one entry are separate records, joined by “and”; a condition that tells them apart may be missing. Equal entries are not always repeated.", "data": [{"protein": "Tryptophan synthase alpha chain wild type, P0A877 (protein) MERYESLFAQLKERKEGAFVPFVTLGDPGIEQSLKIIDTLIEAGADALELGIPFSDPLADGPTIQNATLRAFAAGVTPAQCFEMLALIRQKHPTIPIGLLMYANLVFNKGIDEFYAQCEKVGVDSVLVADVPVEESAPFRQAALRHNVAPIFICPPNADDDLLRQIASYGRGYTYLLSRAGVTGAENRAALPLNHLVAKLKEYNAAPPLQGFGISAPDQVKAAIDAGAAGAISGSAIVKIIEQHINEPEKMLAALKVFVQPMKAATRS", "values": [{"measurement": "unfolding free energy", "value": 8.21, "unit": "kcal/mol"}, {"measurement": "unfolding free energy", "setting": "transition: 3", "value": "4.23 kcal/mol and 4 kcal/mol"}]}]}
